Results as given in patent publication US20180169257A1 (Seagen, published 2018).

T1: human NTB-A (human, UniProt Q96DU3 22-332)
T1 construct: Endogenous NTB-A on antigen-positive Ramos cells (also on MM.1R, WIL2-S and Raji cells and normal human T and B lymphocytes); also called SLAMF6; human NTB-A isoform-1
T1 sequence: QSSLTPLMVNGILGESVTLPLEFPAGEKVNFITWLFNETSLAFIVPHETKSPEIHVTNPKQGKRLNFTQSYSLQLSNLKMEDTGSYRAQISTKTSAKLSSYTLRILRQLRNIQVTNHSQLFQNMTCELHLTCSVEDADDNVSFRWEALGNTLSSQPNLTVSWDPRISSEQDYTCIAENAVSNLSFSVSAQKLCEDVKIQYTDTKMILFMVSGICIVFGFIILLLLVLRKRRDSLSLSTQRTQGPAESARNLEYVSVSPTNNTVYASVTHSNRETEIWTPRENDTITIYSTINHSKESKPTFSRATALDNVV


Each binder was assayed against T1, human NTB-A (assay: competition flow cytometry on Ramos cells; competitor 5 nM mouse 20F3-Alexa Fluor 647).
Experimental: Antigen positive Ramos cells were plated at 1×10⁵ cells per well in a 96 well V-bottom plate (Thermo Scientific, Rochester, N.Y.). Fifty-fold serial dilutions of antibodies were prepared in FACs buffer (PBS+2% fetal bovine serum) and were added to the cells in duplicate. The antibody solutions were incubated with cells for 1 hour on ice, protected from light. The cells were washed twice with FACs buffer and analyzed on the LSRII flow cytometer (BD BioSciences, San Jose, Calif.). EC50 values were determined with GraphPad Prism software (La Jolla, Calif.).

| Binder | EC50 [nM] |
| --- | --- |
| humanized 20F3 HCLB (antibody, V domains shown, Humanized heavy chain HC paired with humanized light chain LB) VH: QIQLVQSGSELKKPGASVKVSCKASGYTFTNYGMNWVRQAPGQDLEWMGWINTYSGEPRYADDFKGRFVFSLDKSVNTAYLQISSLKAEDTAVYYCARDYGRWYFDVWGQGTTVTVSS VL: EIVLTQSPATLSLSPGERATLSCRASSSVSHMHWYQQKPGQAPRPWIYATSNLASGIPARFSGSGSGTDYTLTISSLEPEDFAVYYCQQWSSTPRTFGGGTKVEIKR | 5 |
| humanized 20F3 HBLA (antibody, V domains shown, Humanized heavy chain HB paired with humanized light chain LA) VH: QIQLVQSGSELKKPGASVKVSCKASGYTFTNYGMNWVRQAPGQGLEWMGWINTYSGEPRYADDFKGRFVFSLDKSVSTAYLQISSLKAEDTAVYYCARDYGRWYFDVWGQGTTVTVSS VL: EIVLTQSPATLSLSPGERATLSCRASSSVSHMHWYQQKPGQAPRLLIYATSNLASGIPARFSGSGSGTDFTLTISSLEPEDFAVYYCQQWSSTPRTFGGGTKVEIKR | 71 |
| humanized 20F3 HALD (antibody, V domains shown, Humanized heavy chain HA paired with humanized light chain LD) VH: QVQLVQSGSELKKPGASVKVSCKASGYTFTNYGMNWVRQAPGQGLEWMGWINTYSGEPRYADDFKGRFVFSLDTSVSTAYLQISSLKAEDTAVYYCARDYGRWYFDVWGQGTTVTVSS VL: QIVLSQSPATLSLSPGERATMSCRASSSVSHMHWYQQKPGQAPRPWIYATSNLASGVPARFSGSGSGTDYTLTISSLEPEDFAVYYCQQWSSTPRTFGGGTKVEIKR | 12 |
| humanized 20F3 HDLB (antibody, V domains shown, Humanized heavy chain HD paired with humanized light chain LB) VH: QIQLVQSGSELKKPGASVKVSCKASGYTFTNYGMNWVRQAPGQDLKWMGWINTYSGEPRYADDFKGRFVFSLDKSVNTAYLQISSLKAEDTAVYYCARDYGRWYFDVWGQGTTVTVSS VL: EIVLTQSPATLSLSPGERATLSCRASSSVSHMHWYQQKPGQAPRPWIYATSNLASGIPARFSGSGSGTDYTLTISSLEPEDFAVYYCQQWSSTPRTFGGGTKVEIKR | 3 |
| humanized 20F3 HCLC (antibody, V domains shown, Humanized heavy chain HC paired with humanized light chain LC) VH: QIQLVQSGSELKKPGASVKVSCKASGYTFTNYGMNWVRQAPGQDLEWMGWINTYSGEPRYADDFKGRFVFSLDKSVNTAYLQISSLKAEDTAVYYCARDYGRWYFDVWGQGTTVTVSS VL: QIVLSQSPATLSLSPGERATLSCRASSSVSHMHWYQQKPGQAPRPWIYATSNLASGIPARFSGSGSGTDYTLTISSLEPEDFAVYYCQQWSSTPRTFGGGTKVEIKR | 8 |
| humanized 20F3 HELC (antibody, V domains shown, Humanized heavy chain HE paired with humanized light chain LC) VH: QIQLVQSGSELKKPGASVKVSCKASGYTFTNYGMNWVKQAPGQDLKWMGWINTYSGEPRYADDFKGRFAFSLDKSVNTAYLQISSLKAEDTAVYFCARDYGRWYFDVWGQGTTVTVSS VL: QIVLSQSPATLSLSPGERATLSCRASSSVSHMHWYQQKPGQAPRPWIYATSNLASGIPARFSGSGSGTDYTLTISSLEPEDFAVYYCQQWSSTPRTFGGGTKVEIKR | 10 |
| humanized 20F3 HCLA (antibody, V domains shown, Humanized heavy chain HC paired with humanized light chain LA) VH: QIQLVQSGSELKKPGASVKVSCKASGYTFTNYGMNWVRQAPGQDLEWMGWINTYSGEPRYADDFKGRFVFSLDKSVNTAYLQISSLKAEDTAVYYCARDYGRWYFDVWGQGTTVTVSS VL: EIVLTQSPATLSLSPGERATLSCRASSSVSHMHWYQQKPGQAPRLLIYATSNLASGIPARFSGSGSGTDFTLTISSLEPEDFAVYYCQQWSSTPRTFGGGTKVEIKR | 25 |
| humanized 20F3 HELD (antibody, V domains shown, Humanized heavy chain HE paired with humanized light chain LD) VH: QIQLVQSGSELKKPGASVKVSCKASGYTFTNYGMNWVKQAPGQDLKWMGWINTYSGEPRYADDFKGRFAFSLDKSVNTAYLQISSLKAEDTAVYFCARDYGRWYFDVWGQGTTVTVSS VL: QIVLSQSPATLSLSPGERATMSCRASSSVSHMHWYQQKPGQAPRPWIYATSNLASGVPARFSGSGSGTDYTLTISSLEPEDFAVYYCQQWSSTPRTFGGGTKVEIKR | 2 |
| humanized 20F3 HBLC (antibody, V domains shown, Humanized heavy chain HB paired with humanized light chain LC) VH: QIQLVQSGSELKKPGASVKVSCKASGYTFTNYGMNWVRQAPGQGLEWMGWINTYSGEPRYADDFKGRFVFSLDKSVSTAYLQISSLKAEDTAVYYCARDYGRWYFDVWGQGTTVTVSS VL: QIVLSQSPATLSLSPGERATLSCRASSSVSHMHWYQQKPGQAPRPWIYATSNLASGIPARFSGSGSGTDYTLTISSLEPEDFAVYYCQQWSSTPRTFGGGTKVEIKR | 12 |
| humanized 20F3 HDLC (antibody, V domains shown, Humanized heavy chain HD paired with humanized light chain LC) VH: QIQLVQSGSELKKPGASVKVSCKASGYTFTNYGMNWVRQAPGQDLKWMGWINTYSGEPRYADDFKGRFVFSLDKSVNTAYLQISSLKAEDTAVYYCARDYGRWYFDVWGQGTTVTVSS VL: QIVLSQSPATLSLSPGERATLSCRASSSVSHMHWYQQKPGQAPRPWIYATSNLASGIPARFSGSGSGTDYTLTISSLEPEDFAVYYCQQWSSTPRTFGGGTKVEIKR | 6 |
| humanized 20F3 HELB (antibody, V domains shown, Humanized heavy chain HE paired with humanized light chain LB) VH: QIQLVQSGSELKKPGASVKVSCKASGYTFTNYGMNWVKQAPGQDLKWMGWINTYSGEPRYADDFKGRFAFSLDKSVNTAYLQISSLKAEDTAVYFCARDYGRWYFDVWGQGTTVTVSS VL: EIVLTQSPATLSLSPGERATLSCRASSSVSHMHWYQQKPGQAPRPWIYATSNLASGIPARFSGSGSGTDYTLTISSLEPEDFAVYYCQQWSSTPRTFGGGTKVEIKR | 4 |
| humanized 20F3 HALA (antibody, V domains shown, Humanized heavy chain HA paired with humanized light chain LA) VH: QVQLVQSGSELKKPGASVKVSCKASGYTFTNYGMNWVRQAPGQGLEWMGWINTYSGEPRYADDFKGRFVFSLDTSVSTAYLQISSLKAEDTAVYYCARDYGRWYFDVWGQGTTVTVSS VL: EIVLTQSPATLSLSPGERATLSCRASSSVSHMHWYQQKPGQAPRLLIYATSNLASGIPARFSGSGSGTDFTLTISSLEPEDFAVYYCQQWSSTPRTFGGGTKVEIKR | 147 |
| humanized 20F3 HALC (antibody, V domains shown, Humanized heavy chain HA paired with humanized light chain LC) VH: QVQLVQSGSELKKPGASVKVSCKASGYTFTNYGMNWVRQAPGQGLEWMGWINTYSGEPRYADDFKGRFVFSLDTSVSTAYLQISSLKAEDTAVYYCARDYGRWYFDVWGQGTTVTVSS VL: QIVLSQSPATLSLSPGERATLSCRASSSVSHMHWYQQKPGQAPRPWIYATSNLASGIPARFSGSGSGTDYTLTISSLEPEDFAVYYCQQWSSTPRTFGGGTKVEIKR | 27 |
| humanized 20F3 HALB (antibody, V domains shown, Humanized heavy chain HA paired with humanized light chain LB) VH: QVQLVQSGSELKKPGASVKVSCKASGYTFTNYGMNWVRQAPGQGLEWMGWINTYSGEPRYADDFKGRFVFSLDTSVSTAYLQISSLKAEDTAVYYCARDYGRWYFDVWGQGTTVTVSS VL: EIVLTQSPATLSLSPGERATLSCRASSSVSHMHWYQQKPGQAPRPWIYATSNLASGIPARFSGSGSGTDYTLTISSLEPEDFAVYYCQQWSSTPRTFGGGTKVEIKR | 12 |
| humanized 20F3 HBLD (antibody, V domains shown, Humanized heavy chain HB paired with humanized light chain LD) VH: QIQLVQSGSELKKPGASVKVSCKASGYTFTNYGMNWVRQAPGQGLEWMGWINTYSGEPRYADDFKGRFVFSLDKSVSTAYLQISSLKAEDTAVYYCARDYGRWYFDVWGQGTTVTVSS VL: QIVLSQSPATLSLSPGERATMSCRASSSVSHMHWYQQKPGQAPRPWIYATSNLASGVPARFSGSGSGTDYTLTISSLEPEDFAVYYCQQWSSTPRTFGGGTKVEIKR | 4 |
| humanized 20F3 HBLB (antibody, V domains shown, Humanized heavy chain HB paired with humanized light chain LB) VH: QIQLVQSGSELKKPGASVKVSCKASGYTFTNYGMNWVRQAPGQGLEWMGWINTYSGEPRYADDFKGRFVFSLDKSVSTAYLQISSLKAEDTAVYYCARDYGRWYFDVWGQGTTVTVSS VL: EIVLTQSPATLSLSPGERATLSCRASSSVSHMHWYQQKPGQAPRPWIYATSNLASGIPARFSGSGSGTDYTLTISSLEPEDFAVYYCQQWSSTPRTFGGGTKVEIKR | 6 |
| humanized 20F3 HELA (antibody, V domains shown, Humanized heavy chain HE paired with humanized light chain LA) VH: QIQLVQSGSELKKPGASVKVSCKASGYTFTNYGMNWVKQAPGQDLKWMGWINTYSGEPRYADDFKGRFAFSLDKSVNTAYLQISSLKAEDTAVYFCARDYGRWYFDVWGQGTTVTVSS VL: EIVLTQSPATLSLSPGERATLSCRASSSVSHMHWYQQKPGQAPRLLIYATSNLASGIPARFSGSGSGTDFTLTISSLEPEDFAVYYCQQWSSTPRTFGGGTKVEIKR | 31 |
| humanized 20F3 HCLD (antibody, V domains shown, Humanized heavy chain HC paired with humanized light chain LD) VH: QIQLVQSGSELKKPGASVKVSCKASGYTFTNYGMNWVRQAPGQDLEWMGWINTYSGEPRYADDFKGRFVFSLDKSVNTAYLQISSLKAEDTAVYYCARDYGRWYFDVWGQGTTVTVSS VL: QIVLSQSPATLSLSPGERATMSCRASSSVSHMHWYQQKPGQAPRPWIYATSNLASGVPARFSGSGSGTDYTLTISSLEPEDFAVYYCQQWSSTPRTFGGGTKVEIKR | 5 |
| humanized 20F3 HDLA (antibody, V domains shown, Humanized heavy chain HD paired with humanized light chain LA) VH: QIQLVQSGSELKKPGASVKVSCKASGYTFTNYGMNWVRQAPGQDLKWMGWINTYSGEPRYADDFKGRFVFSLDKSVNTAYLQISSLKAEDTAVYYCARDYGRWYFDVWGQGTTVTVSS VL: EIVLTQSPATLSLSPGERATLSCRASSSVSHMHWYQQKPGQAPRLLIYATSNLASGIPARFSGSGSGTDFTLTISSLEPEDFAVYYCQQWSSTPRTFGGGTKVEIKR | 15 |
| murine 20F3 antibody (antibody, mouse IgG1, V domains shown, also called mouse 20F3) VH: QIQLVQSGPELKKPGETVKISCKASGYTFTNYGMNWVKQAPGKDLKWMGWINTYSGEPRYADDFKGRFAFSLEKSANTAYLQINNLKNEDMATYFCARDYGRWYFDVWGTGTTVTVSS VL: QIVLSQSPAILSASPGEKVTMTCRASSSVSHMHWYQQKPGSSPKPWIYATSNLASGVPARFSGSGSGTSYSLTISRVEAEDAATYYCQQWSSTPRTFGGGTKLEIKR | 2 |
